Measured values: paper PMC9976893, “Dynamic states of eIF6 and SDS variants modulate interactions with uL14 of the 60S ribosomal subunit” (Nucleic Acids Research, 2023)

Biological target: recombinant full-length human eIF6 (human, UniProt P56537 1-245)
Experiment: SPR; eIF6 immobilised on a CM5 chip by NHS/EDC chemistry (4913 RU); peptides injected at 0-500 μM (1:2 dilutions) in 20 mM HEPES pH 7.4, 150 mM NaCl, 0.01% BSA, 0.002% Tween 20; 25 μl/min; BIAcore S200; profiles did not obey a 1:1 model
Settings: both partners purified

percent reduction of binding against the uL14-WT peptide at 0.5 mM [%] | Binder
~50 | VAKECADLWPRIASNAGAIA (also called site-specific mutant peptide S138) [uL14 peptide (aa 121-140) with S138 to A substitution]
~50 | VAKECAALWPRIASNAGSIA (also called site-specific mutant peptide D127) [uL14 peptide (aa 121-140) with alanine substitution of D127]
~50 | VAKECADLWPAIASNAGSIA (also called site-specific mutant peptide R131) [uL14 peptide (aa 121-140) with alanine substitution of R131]
~50 | VAKECADLWPRIASAAGSIA (also called site-specific mutant peptide N135) [uL14 peptide (aa 121-140) with alanine substitution of N135]
